The values that follow come from patent US20220406376A1 (MacroGenics, published 2022).

What is called EC50 (read off the curve) is the concentration that produces a half-maximal response. Usually Kd stands for the equilibrium constant for the complex coming apart. A word on the kon: it is the second-order rate constant of association. A word on the koff: it is a measure of how fast the partners let go of each other.

In assay [1] the target is T1, CD137 on the surface of cells (activated human T cells; engineered CHO cells) (human, UniProt Q07011 24-255).
T1 construct: whole, on cells; also called human CD137; cell surface expressed CD137
In words: flow cytometry on activated CD8+ T cells (donor D53781, CD8 FITC), anti-hFc APC MFI. Background: In flow cytometry, cells or beads pass a laser one at a time.

In assay [2] the target is T2, HER2/neu on the surface of target cells (N87, JIMT-1, MCF-7, MDA-MB231) (UniProt P04626 23-1255, limits assumed).
T2 construct: whole, on cells
The assay can be described thus: flow cytometry on JIMT-1 cells, anti-hFc APC MFI.

In assay [3] the target is T3, extracellular portion of cynomolgus monkey CD137 fused to a histidine-containing peptide (cynomolgus monkey, UniProt A9YYE7 24-186).
T3 construct: extracellular domain; also called cynoCD137
T3 sequence: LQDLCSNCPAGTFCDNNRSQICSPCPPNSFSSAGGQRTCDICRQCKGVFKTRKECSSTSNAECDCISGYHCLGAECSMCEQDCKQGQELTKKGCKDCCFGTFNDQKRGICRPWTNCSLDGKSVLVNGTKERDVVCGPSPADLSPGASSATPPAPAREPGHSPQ
In words: SPR (BIACORE); molecule captured on anti-human Fc; cynoCD137 6.25-100 nM; 1:1 Langmuir. Here is the method:
(§1) The amino acid sequences of these clones were incorporated into the 5 chain diabody DART-G to yield optimized DART-G molecules (designated as DART-G1, DART-G2; DART-G3, and DART-G4). The binding affinity of DART-G2, DART-G3, and DART-G4 were evaluated via BIAcore (Table 11). For such evaluation, His-tagged soluble human CD137 (huCD137) or cynomolgus monkey CD137 (cynoCD137) (containing an extracellular portion of human or cynomolgus monkey CD137 fused to a histidine-containing peptide) was passed over a surface coated with immobilized antibody. Briefly, each test molecule was captured onto an F(ab)₂ goat-anti-human Fc-coated surface and then incubated in the presence of different concentrations (6.25-100 nM) of huCD137 or cynoCD137. The kinetics of binding were determined via BIACORE® analysis binding (normalized 1:1 Langmuir binding model).
(In general: Surface plasmon resonance follows binding to a sensor surface in real time, without labels.)

Assay [4] has as its target T2, HER2/neu on the surface of target cells …. In words: flow cytometry on N87 cells, anti-hFc APC MFI.
Assay [5] concerns the target T1, CD137 on the surface of cells …. The assay can be described thus: flow cytometry on activated pan T cells (donor D46433, CD8 PE), anti-hFc APC MFI.
Assay [6] has as its target T3, extracellular portion of cynomolgus …. The assay can be described thus: SPR (BIACORE); molecule captured on anti-human Fc; cynoCD137 6.25-100 nM; column head ×10^-4 applied as printed. Here is the method: as §1
In assay [7] the target is T4, extracellular portion of human CD137 fused to a histidine-containing peptide (human, UniProt Q07011 24-186).
T4 construct: extracellular domain; also called huCD137; His-tagged soluble human CD137
In words: SPR (BIACORE); molecule captured on anti-human Fc; huCD137 6.25-100 nM; 1:1 Langmuir. As to the method: as §1

Assay [8] concerns the target T1, CD137 on the surface of cells …. The assay can be described thus: flow cytometry on CD137-expressing CHO cells (CHO/137), anti-hFc APC MFI.
For assay [9], the target named is T2, HER2/neu on the surface of target cells …. In words: flow cytometry on MCF-7 cells, anti-hFc APC MFI.
Assay [10] has as its target T1, CD137 on the surface of cells …. In words: flow cytometry on activated CD8+ T cells (donor D59788, CD8 FITC), anti-hFc APC MFI.
Assay [11] has as its target T5, 5T4 on the surface of target cells (JIMT-1, SKOV-3) (UniProt Q13641 32-420, limits assumed).
T5 construct: whole, on cells
T5 sequence (looked up): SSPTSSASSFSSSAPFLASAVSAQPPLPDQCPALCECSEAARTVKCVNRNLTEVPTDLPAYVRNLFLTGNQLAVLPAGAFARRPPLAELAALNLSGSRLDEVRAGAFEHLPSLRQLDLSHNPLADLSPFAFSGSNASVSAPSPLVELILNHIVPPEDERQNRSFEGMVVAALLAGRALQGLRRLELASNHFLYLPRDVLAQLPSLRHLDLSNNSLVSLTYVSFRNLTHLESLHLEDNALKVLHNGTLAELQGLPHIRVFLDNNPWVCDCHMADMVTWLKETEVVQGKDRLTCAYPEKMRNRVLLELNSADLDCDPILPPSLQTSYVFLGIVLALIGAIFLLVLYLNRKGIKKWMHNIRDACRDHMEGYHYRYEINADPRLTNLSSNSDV
The assay can be described thus: flow cytometry on JIMT-1 (5T4 hi) cells, anti-hFc APC MFI.

T1 sequence (Q07011 24-255, change not shown): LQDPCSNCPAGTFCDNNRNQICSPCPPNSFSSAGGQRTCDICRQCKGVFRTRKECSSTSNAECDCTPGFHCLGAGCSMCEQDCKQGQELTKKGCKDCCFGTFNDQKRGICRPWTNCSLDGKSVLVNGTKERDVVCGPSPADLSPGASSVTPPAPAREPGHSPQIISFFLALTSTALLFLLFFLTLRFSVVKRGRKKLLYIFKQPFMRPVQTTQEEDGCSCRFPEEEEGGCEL

B1: DART-G4 (bispecific antibody, human IgG1, kappa, L234A L235A)
heavy: QVQLVQSGAEVKKPGASVKVSCKASGYTFTNYGMNWVRQAPGQGLEWMGWINTNIGEPTYTEEFKGRVTMTRDTSISTAYMELSRLRSDDTAVYYCARDDGYGNRVSYWGQGTLVTVSSASTKGPSVFPLAPSSKSTSGGTAALGCLVKDYFPEPVTVSWNSGALTSGVHTFPAVLQSSGLYSLSSVVTVPSSSLGTQTYICNVNHKPSNTKVDKRVEPKSCDKTHTCPPCPAPEAAGGPSVFLFPPKPKDTLMISRTPEVTCVVVDVSHEDPEVKFNWYVDGVEVHNAKTKPREEQYNSTYRVVSVLTVLHQDWLNGKEYKCKVSNKALPAPIEKTISKAKGQPREPQVYTLPPSREEMTKNQVSLSCAVKGFYPSDIAVEWESNGQPENNYKTTPPVLDSDGSFFLVSKLTVDKSRWQQGNVFSCSVMHEALHNRYTQKSLSLSPGK
light: DIQMTQSPSSLSASVGDRVTITCKASQDISNYLSWFQQKPGKAPKTLIYRANRLQSGVPSRFSGSGSGTDFTLTISSLQPEDFATYYCLQHDEFPWTFGQGTKLEIKRTVAAPSVFIFPPSDEQLKSGTASVVCLLNNFYPREAKVQWKVDNALQSGNSQESVTEQDSKDSTYSLSSTLTLSKADYEKHKVYACEVTHQGLSSPVTKSFNRGEC
chain 1: QVQLVQSGAEVKKPGASVKVSCKASGYTFTNYGMNWVRQAPGQGLEWMGWINTNIGEPTYTEEFKGRVTMTRDTSISTAYMELSRLRSDDTAVYYCARDDGYGNRVSYWGQGTLVTVSSASTKGPSVFPLAPSSKSTSGGTAALGCLVKDYFPEPVTVSWNSGALTSGVHTFPAVLQSSGLYSLSSVVTVPSSSLGTQTYICNVNHKPSNTKVDKRVEPKSCDKTHTCPPCPAPEAAGGPSVFLFPPKPKDTLMISRTPEVTCVVVDVSHEDPEVKFNWYVDGVEVHNAKTKPREEQYNSTYRVVSVLTVLHQDWLNGKEYKCKVSNKALPAPIEKTISKAKGQPREPQVYTLPPSREEMTKNQVSLWCLVKGFYPSDIAVEWESNGQPENNYKTTPPVLDSDGSFFLYSKLTVDKSRWQQGNVFSCSVMHEALHNHYTQKSLSLSPGGGGSGGGSGGGDIQMTQSPSSLSASVGDRVTITCRPSQDISNYLNWYQQKPDKTVKLLIYYTSRLRSGVPSRFSGSGSGTDFTFTISSLQPEDIATYFCQQGDTLPYTFGQGTKLEIKGGGSGGGGQVQVQLVQSGAEVKKPGASVKVSCKASGYTFTSYWINWVKQAPGQGLEWIGNIYPSDSYTNYNQKFKDKATITADKSTSTAYMELSSLRSEDTAVYYCTRDYGSSYSYNVWGQGTTVTVSSGGCGGGEVAALEKEVAALEKEVAALEKEVAALEK
chain 2: DIQMTQSPSSLSASVGDRVTITCRPSQDISNYLNWYQQKPDKTVKLLIYYTSRLRSGVPSRFSGSGSGTDFTFTISSLQPEDIATYFCQQGDTLPYTFGQGTKLEIKGGGSGGGGQVQLVQSGAEVKKPGASVKVSCKASGYTFTSYWINWVKQAPGQGLEWIGNIYPSDSYTNYNQKFKDKATITADKSTSTAYMELSSLRSEDTAVYYCTRDYGSSYSYNVWGQGTTVTVSSGGCGGGKVAALKEKVAALKEKVAALKEKVAALKE
notes: also called optimized DART-G4
Regarding B1, the concentration for a half-maximal effect (EC50 (read off the curve)) in [1] is around 0.02 µg/mL; in assay [2], around 200 pM; in assay [4] it was around 500 pM; in [5], around 80 pM; in assay [8], around 0.02 µg/mL; in assay [9], around 90 pM. For the same molecule, the Kd in assay [3] stood at 40000 pM; in [7] it was 28000 pM. In addition, the on-rate constant (kon) was 350000 M⁻¹ s⁻¹ in assay [3] and 310000 M⁻¹ s⁻¹ in assay [7]. The figures for the koff in assay [6] and in [7] were 0.014 s⁻¹ and 0.0087 s⁻¹, respectively.

B2: TRIDENT-4 (bispecific antibody, human IgG1, kappa, L234A L235A)
chain 1: DIQMTQSPSSLSASVGDRVTITCQASQDISNYLNWYQQKPDKTVKLLIYYTGRARSGVPSRFSGSGSGTDFTFTISSLQPEDIATYFCQQGDTLPYTFGQGTKLEIKGGGSGGGGQVQLVQSGAEVKKPGASVKVSCKASGYTFTSYWINWVRQAPGQGLEWIGNIYPSDSYTNYNQKFKDKATITADKSTSTAYMELSSLRSEDTAVYYCTRDYGSAYSMSTWGQGTTVTVSSASTKGEVAACEKEVAALEKEVAALEKEVAALEKGGGDKTHTCPPCPAPEAAGGPSVFLFPPKPKDTLMISRTPEVTCVVVDVSHEDPEVKFNWYVDGVEVHNAKTKPREEQYNSTYRVVSVLTVLHQDWLNGKEYKCKVSNKALPAPIEKTISKAKGQPREPQVYTLPPSREEMTKNQVSLWCLVKGFYPSDIAVEWESNGQPENNYKTTPPVLDSDGSFFLYSKLTVDKSRWQQGNVFSCSVMHEALHNHYTQKSLSLSPGK
chain 2: DIQMTQSPSSLSASVGDRVTITCQASQDISNYLNWYQQKPDKTVKLLIYYTGRARSGVPSRFSGSGSGTDFTFTISSLQPEDIATYFCQQGDTLPYTFGQGTKLEIKGGGSGGGGQVQLVQSGAEVKKPGASVKVSCKASGYTFTSYWINWVRQAPGQGLEWIGNIYPSDSYTNYNQKFKDKATITADKSTSTAYMELSSLRSEDTAVYYCTRDYGSAYSMSTWGQGTTVTVSSASTKGKVAACKEKVAALKEKVAALKEKVAALKE
heavy: QVTLRESGPALVKPTQTLTLTCTFSGFSLSTSGMSVGWIRQPPGKALEWLADIWWDDKKDYNPSLKSRLTISKDTSKNQVVLKVTNMDPADTATYYCARSMITNWYFDVWGAGTTVTVSSASTKGPSVFPLAPSSKSTSGGTAALGCLVKDYFPEPVTVSWNSGALTSGVHTFPAVLQSSGLYSLSSVVTVPSSSLGTQTYICNVNHKPSNTKVDKRVEPKSCDKTHTCPPCPAPEAAGGPSVFLFPPKPKDTLMISRTPEVTCVVVDVSHEDPEVKFNWYVDGVEVHNAKTKPREEQYNSTYRVVSVLTVLHQDWLNGKEYKCKVSNKALPAPIEKTISKAKGQPREPQVYTLPPSREEMTKNQVSLSCAVKGFYPSDIAVEWESNGQPENNYKTTPPVLDSDGSFFLVSKLTVDKSRWQQGNVFSCSVMHEALHNRYTQKSLSLSPGK
light: DIQMTQSPSTLSASVGDRVTITCRASQSVGYMHWYQQKPGKAPKLLIYDTSKLASGVPSRFSGSGSGTEFTLTISSLQPDDFATYYCFQGSGYPFTFGGGTKLEIKRTVAAPSVFIFPPSDEQLKSGTASVVCLLNNFYPREAKVQWKVDNALQSGNSQESVTEQDSKDSTYSLSSTLTLSKADYEKHKVYACEVTHQGLSSPVTKSFNRGEC
In the case of B2, in assay [10], the “EC50 (read off the curve)” value is around 0.007 µg/mL. Further, the binding result in [11] is “no binding (tested: 10 ug/mL)”.
